Article PMC10208975, “TCF7L2 acts as a molecular switch in midbrain to control mammal vocalization through its DNA binding domain but not transcription activation domain”

Experiments:
Conditions in all cases: protein: recombinant; tags: MBP (pMAL-cRI); only one strand given
[1] = target: TCF7L2 HMG box Y337S (MBP fusion) (UniProt Q924A0 327-395, Y337S); assay: EMSA; 50 mM NaCl, 20 mM Tris-HCl (pH not stated), 1 mM DTT, 1 mM MgCl2, 5% glycerol, 1 h at 25 C; 6% native PAGE
[2] = target: TCF7L2 HMG box Y337H (MBP fusion) (UniProt Q924A0 327-395, Y337H); assay: as above
[3] = target: TCF7L2 HMG box Y337E (MBP fusion) (UniProt Q924A0 327-395, Y337E); assay: as above
[4] = target: TCF7L2 HMG box WT (MBP fusion) (UniProt Q924A0 327-395); assay: EMSA; dose-dependent; 50 mM NaCl, 20 mM Tris-HCl (pH not stated), 1 mM DTT, 1 mM MgCl2, 5% glycerol, 1 h at 25 C; 6% native PAGE
[5] = target: TCF7L2 HMG box Y337F (MBP fusion) (UniProt Q924A0 327-395, Y337F); assay: EMSA; binding largely retained; 50 mM NaCl, 20 mM Tris-HCl (pH not stated), 1 mM DTT, 1 mM MgCl2, 5% glycerol, 1 h at 25 C; 6% native PAGE
Chain of TCF7L2 HMG box Y337F (MBP fusion) (Q924A0 327-395 Y337F): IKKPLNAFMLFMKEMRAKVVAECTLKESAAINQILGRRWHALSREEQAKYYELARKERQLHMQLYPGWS

Chain of TCF7L2 HMG box Y337S (MBP fusion) (Q924A0 327-395 Y337S): as the sequence (Q924A0 327-395 Y337F) above, with F11S counted along it
Chain of TCF7L2 HMG box Y337E (MBP fusion) (Q924A0 327-395 Y337E): as the sequence (Q924A0 327-395 Y337F) above, with F11E counted along it
Chain of TCF7L2 HMG box WT (MBP fusion) (Q924A0 327-395): as the sequence (Q924A0 327-395 Y337F) above, with F11Y counted along it
Chain of TCF7L2 HMG box Y337H (MBP fusion) (Q924A0 327-395 Y337H): as the sequence (Q924A0 327-395 Y337F) above, with F11H counted along it

B1: HMG-binding sequence probe (dsDNA)
DNA 1: TAGACGTAGGGCACCCTTTGAAGCTCTCCCTCGA
DNA 2: TCGAGGGAGAGCTTCAAAGGGTGCCCTACGTCTA
binding result [1]: no binding | binding result [2]: no binding | binding result [3]: no binding | binding result [4]: binds | binding result [5]: binds
